Series [1] has as its target FITC-labeled, dephosphorylated casein.
A further series addresses T1, annexin V, P08758.
T1 chain: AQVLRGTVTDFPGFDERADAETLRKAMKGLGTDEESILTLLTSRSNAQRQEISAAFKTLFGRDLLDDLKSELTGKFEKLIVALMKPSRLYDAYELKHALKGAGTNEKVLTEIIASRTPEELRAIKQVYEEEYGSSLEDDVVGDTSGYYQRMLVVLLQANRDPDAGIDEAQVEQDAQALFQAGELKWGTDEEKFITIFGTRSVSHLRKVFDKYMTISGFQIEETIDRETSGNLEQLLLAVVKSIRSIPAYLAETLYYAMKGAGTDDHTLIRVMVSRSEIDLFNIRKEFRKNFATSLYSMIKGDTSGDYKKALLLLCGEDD

In series [2] the target is kidney membrane associated proteins.

The source of these data is US20040171629.

B1: MBP-Omi-(134-458) (protein)
chain: AVPSPPPASPRSQYNFIADVVEKTAPAVVYIEILDRHPFLGREVPISNGSGFVVAADGLIVTNAHVVADRRRVRVRLLSGDTYEAVVTAVDPVADIATLRIQTKEPLPTLPLGRSADVRQGEFVVAMGSPFALQNTITSGIVSSAQRPARDLGLPQTNVEYIQTDAAIDFGNSGGPLVNLDGEVIGVNTMKVTAGISFAIPSDRLREFLHRGEKKNSSSGISGSQRRYIGVMMLTLSPSILAELQLREPSFPDVQHGVLIHKVILGSPAHRAGLRPGDVILAIGEQMVQNAEDVYEAVRTQSQLAVQIRRGRETLTLYVTPEVTE
As to B1, the “proteolytic activity, fluorescence at 535 nm of Dcasein-FITC” value in series [1] is given as “there was a rapid increase in fluorescence for the first 20 min followed by a slower increase for the remaining 10 min of the assay”.

B2: His-tagged Omi-(134-458) (protein)
chain: AVPSPPPASPRSQYNFIADVVEKTAPAVVYIEILDRHPFLGREVPISNGSGFVVAADGLIVTNAHVVADRRRVRVRLLSGDTYEAVVTAVDPVADIATLRIQTKEPLPTLPLGRSADVRQGEFVVAMGSPFALQNTITSGIVSSAQRPARDLGLPQTNVEYIQTDAAIDFGNSGGPLVNLDGEVIGVNTMKVTAGISFAIPSDRLREFLHRGEKKNSSSGISGSQRRYIGVMMLTLSPSILAELQLREPSFPDVQHGVLIHKVILGSPAHRAGLRPGDVILAIGEQMVQNAEDVYEAVRTQSQLAVQIRRGRETLTLYVTPEVTE
As to B2, the “cleavage in human kidney cytoplasmic extract, 2-dimensional gel electrophoresis” value with annexin V, P08758 is “two polypeptides (32 kD and 29 kD) in the human kidney cytoplasmic fraction were specifically cleaved by His-Omi”. The “cleavage in human kidney membrane extract, 2-dimensional gel electrophoresis” value in series [2] was “No proteins were cleaved in the membrane bound fractions”. Besides, the “proteolytic activity, SDS-PAGE with Coomassie Blue staining” value with β-casein is “had substantial activity against β-casein, and after 30 min total degradation of the substrate occurred”.
